# Reference: patent US20250340881A1, “PHARMACEUTICAL COMPOSITION FOR TREATING CANCER COMPRISING FOXM1 MUTANT OR FOXM1 SHRNA” (Industry-University Cooperation Foundation Hanyang …, priority 2022, published 2025)
# B1: FoxM1 WT: wild-type FoxM1 protein (SEQ ID NO: 1) over-expressed by lentivirus in A549 cells (protein, listed as Homo sapiens)
# chain: MKTSPRRPLILKRRRLPLPVQNAPSETSEEEPKRSPAQQESNQAEASKEVAESNSCKFPAGIKIINHPTMPNTQVVAIPNNANIHSIITALTAKGKESGSSGPNKFILISCGGAPTQPPGLRPQTQTSYDAKRTEVTLETLGPKPAARDVNLPRPPGALCEQKRETCDGEAAGCTINNSLSNIQWLRKMSSDGLGSRSIKQEMEEKENCHLEQRQVKVEEPSRPSASWQNSVSERPPYSYMAMIQFAINSTERKRMTLKDIYTWIEDHFPYFKHIAKPGWKNSIRHNLSLHDMFVRETSANGKVSFWTIHPSANRYLTLDQVFKQQQKRPNPELRRNMTIKTELPLGARRKMKPLLPRVSSYLVPIQFPVNQSLVLQPSVKVPLPLAASLMSSELARHSKRVRIAPKVLLAEEGIAPLSSAGPGKEEKLLFGEGFSPLLPVQTIKEEEIQPGEEMPHLARPIKVESPPLEEWPSPAPSFKEESSHSWEDSSQSPTPRPKKSYSGLRSPTRCVSEMLVIQHRERRERSRSRRKQHLLPPCVDEPELLFSEGPSTSRWAAELPFPADSSDPASQLSYSQEVGGPFKTPIKETLPISSTPSKSVLPRTPESWRLTPPAKVGGLDFSPVQTSQGASDPLPDPLGLMDLSTTPLQSAPPLESPQRLLSSEPLDLISVPFGNSSPSDIDVPKPGSPEPQVSGLAANRSLTEGLVLDTMNDSLSKILLDISFPGLDEDPLGPDNINWSQFIPELQ
# How the values were obtained:
# A549 lung cancer cells [1] = experiment: Real-time PCR of EMT, M2-inducing and immune evasion factors in A549 cells treated with Thiostrepton; type: cell-based; settings: 5 μM, 48 h, Mock and S25E cells
# lung tissues = experiment: CD68 and CD163 immunostaining and immunoblot of lung tissues of injected mice; type: in vivo; settings: lung tissues of injected mice
# Protocol: Additionally, the increase of macrophages around the tumor was examined by immunoblot using lung tissue lysates. […] Through the results of this study, it could be observed that the non-phosphorylated point mutant had the effect of inhibiting polarization into tumor-associated macrophages.
# Furthermore, CD68, a marker for a broad range of macrophages, and CD163, a marker for tumor-associated macrophages, were analyzed in lung tissues of mice using immunostaining. It was determined that the expression of both CD68 and CD163 markers was increased in the lung tissues of mice injected with the FoxM1 WT protein over-expressed cells (FIG. 13D). Through the present results, it could be observed that there was an effect of promoting the polarization of M2 tumor-associated macrophages in lung cancer cells expressing the FoxM1 WT protein.
# A549 lung cancer cells [2] = experiment: EMT marker expression (immunoblot, real-time PCR) in A549 cells expressing FoxM1 WT or mutants; type: cell-based; settings: FoxM1 WT
# Excerpt: To establish a stabilized cell line expressing WT, phosphorylation, and non-phosphorylated point mutants of FoxM1 in lung cancer cells, A549 cells were first infected with pLVX-Tet3G expressing lentivirus, and the infected cells were selected by treating with G418 for 5 days. The selected A549Tet3G cells were infected with lentiviruses expressing WT and phosphorylated point mutants (S25E, S361E, S715E) and non-phosphorylated point mutants (S25A, S361A, S715A) of FoxM1, and then treated with puromycin for 48 hours to establish a stabilized cell line. The established cells were treated with 2 μg/ml of doxycycline to induce expression of WT, phosphorylation, and non-phosphorylated point mutants of FoxM1, and the mRNA and protein expression levels of each FoxM1 point mutant were determined to confirm whether they were well expressed. As shown in FIG. 4A and FIG. 4B, it was confirmed that the WT and each point mutant form of FoxM1 were well expressed through mRNA and protein expression levels. It was observed that the expression levels of N-cadherin and vimentin were higher, and the expression levels of E-cadherin were lower in lung cancer cells expressing the phosphorylated form of FoxM1, specifically, phosphorylated at the phosphorylation site S25, compared to the cells expressing the non-phosphorylated form of FoxM1. In addition, when it was examined whether the expression of these phosphorylation and non-phosphorylated point mutants of FoxM1 affected cell proliferation, it was observed that it had no significant effect on cell proliferation (FIG. 4C).
# To establish a stabilized cell line expressing FoxM1 WT in A549 lung cancer cells, first, pLVX-Tet3G expressing lentivirus was infected into cells, and the infected cells were selected by treating 500 μg/ml of G418 for 5 days. The selected A549^Tet3G cells were infected with lentiviruses expressing FoxM1 WT or Mock, and the stabilized cell lines were established by treating with 2 μg/ml of puromycin for 48 hours. After inducing the expression of FoxM1 WT by treating the established cells with 2 μg/ml of doxycycline, the protein expression was observed by immunoblot.
# A549 cells [3] = experiment: PD-L1 (CD274) mRNA in A549 cells by real-time PCR; type: cell-based; settings: A549 cells expressing the protein
# Protocol: To examine the mRNA expression levels of PD-1 and PD-L1, which are involved in solid tumor immune evasion, in THP-1 cells and the cells expressing the FoxM1 phosphorylated point mutant, the expression of PD-1 (CD279) mRNA, an immune evasion factor, was measured by qRT-PCR in THP-1 monocytes co-cultured with A549^S25E cells for 48 h (FIG. 7B). It was observed that the expression of mRNA of PD-L1 (CD274), an immune evasion factor, increased by 2 folds in the A549^S25E cells expressing the phosphorylated point mutant compared to the control group.
# A549 cells [4] = experiment: ELISA of TGFB1 and VEGFA proteins in A549 culture medium; type: cell-based; settings: medium cultured 48 h
# Protocol: (§1) In addition, after co-culturing of human monocyte THP-1 cells and cell groups over-expressing FoxM1 point mutations for 48 hours under the conditions where the previous experiments were performed, the mRNA expression levels of M2d-inducing factors IL4, IL6, IL10, and VEGFA in A549 cells expressing FoxM1 S25E were analyzed. […] The amounts of TGFB1 and VEGFA proteins in the medium cultured for 48 h with A549 cells (4×10^4 cells/ml) expressing FoxM1 variants were measured by ELISA.
# THP-1 cells = experiment: M1 and M2 marker mRNA in THP-1 cells co-cultured with FoxM1-expressing A549 cells; type: cell-based, human; settings: co-culture 48 h
# Excerpt: In the animal tissues, it was confirmed that both PD-L1 protein expression and CD274 mRNA expression were increased in cancer cells expressing FoxM1 (FIG. 5D, 5E). […] From the results described above, we investigated whether FoxM1 phosphorylated point mutant (S25E) affects the polarization of macrophages in the tumor microenvironment. After co-culturing human monocyte THP-1 cells and the cell groups over-expressing FoxM1 point mutants, M1 and M2 markers were examined in THP-1 cells.
# Next, an expression suppression system for suppressing FoxM1 expression was established to observe whether the FoxM1 phosphorylated point mutant (S25E) directly affects polarization to M2 macrophages. First, to inhibit the expression of mRNA of FoxM1, a pLKO-puro.1-hFoxM1 plasmid was produced using a pLKO-puro.1 vector to construct shRNAs targeting nucleotide sequences at 709-729 positions in the human FoxM1 mRNA sequence. The following sequences can be used as target sequences for human FoxM1 shRNA production, and oligonucleotides with the following sequences can be used as primers for shRNA production. The gene accession number for human FoxM1 mRNA in PubMed is NM_001243088.2, and it contains 3507 bp. The following primers were used for shRNA production: 5′-ccgg-[…]-ctcgag-[…]-tttttg-3′ (forward primer) and 5′-aattcaaaaa-AGCAAG AGATGGAGGAAAAGG-ctcgag-[…]-3′ (reverse primer). Then, after purifying and concentrating each lentivirus for expression of the produced FoxM1 shRNA, it was constructed by infecting a lung cancer cell line, A549 cells expressing FoxM1, with the virus. The mRNA expression of M2 markers, CD163, CD206, and VEGFA, was examined after co-culturing lung cancer cells (4×10^4 cells/ml) with suppressed FoxM1 expression and THP-1 cells (1.2×10^5 cells/ml) for 48 h. […] When co-culturing with cancer cells expressing the FoxM1 variant S25E, it was confirmed that the M2 markers CD163, CD206, and VEGFA were all increased by 2 folds or more in THP1 cells compared to the control group (Mock_shCtrl) (FIG. 6D).
# After co-culturing the FoxM1 WT protein over-expressed cancer cells (4×10^4 cells/ml) and THP-1 cells (1.2×10^5 cells/ml) for 48 h, the mRNA expression of M1 markers INOS and IL12B was not altered, while the mRNA expression of all the M2 markers IL10, CD163, CD206, TGFB1, and VEGFA was increased in the FoxM1 WT (FIG. 13A). Among them, CD206, TGFB1, and VEGFA had been known as markers for M2d-tumor-associated macrophages (M2d-TAM) (JAYASINGAM, Sharmilla Devi, et al., Frontiers in Oncology (2020) 9: 1512.).
# A549 cells [5] = experiment: M2d-inducing factor mRNA in A549 cells after co-culture with THP-1 cells; type: cell-based; settings: co-culture with THP-1 48 hours
# Protocol: as §1
Molecule,"expression of IL6, VEGFA and CD274 (PD-L1) (A549 lung cancer cells [1])","expression of mesenchymal markers CDH2, vimentin, SNAI1 and SNAI2 (A549 lung cancer cells [1])","expression of IL6, VEGFA and CD274 (PD-L1) (A549 lung cancer cells [1]; listed as thiostepton)","expression of mesenchymal markers CDH2, vimentin, SNAI1 and SNAI2 (A549 lung cancer cells [1]; listed as thiostepton)","expression of CD68 and CD163 markers, immunostaining (in words) (lung tissues)","FoxM1 expression, real-time polymerase chain reaction (A549 lung cancer cells [2])","expression of E-cadherin, real-time polymerase chain reaction (reduced by) (A549 lung cancer cells [2])","expression of N-cadherin, real-time polymerase chain reaction (A549 lung cancer cells [2])","expression of vimentin, real-time polymerase chain reaction (A549 lung cancer cells [2])","expression of E-cadherin, immunoblot (decreased by) (A549 lung cancer cells [2]; doxycycline 2 μg/ml)","expression of N-cadherin, immunoblot (A549 lung cancer cells [2]; doxycycline 2 μg/ml)","expression of vimentin, immunoblot (A549 lung cancer cells [2]; doxycycline 2 μg/ml)",mRNA expression of PD-L1 (CD274) compared to the control group (A549 cells [3]),amounts of TGFB1 and VEGFA proteins in medium (in words) (A549 cells [4]),mRNA expression of M1 markers INOS and IL12B in THP-1 cells (THP-1 cells),"mRNA expression of M2 markers IL10, CD163, CD206, TGFB1 and VEGFA in THP-1 cells (in words) (THP-1 cells)","mRNA expression levels of M2d-inducing factors IL4, IL6, IL10 and VEGFA in A549 cells (in words) (A549 cells [5])"
C=C(NC(=O)C(=C)NC(=O)c1csc(C2=N[C@@H]3c4csc(n4)[C@H]4NC(=O)c5csc(n5)[C@H]([C@](C)(O)[C@@H](C)O)NC(=O)[C@H]5CSC(=N5)/C(=C/C)NC(=O)[C@H]([C@@H](C)O)NC(=O)c5csc(n5)[C@]3(CC2)NC(=O)[C@H](C)NC(=O)C(=C)NC(=O)[C@H](C)NC(=O)[C@H]([C@@H](C)CC)N[C@@H]2C=Cc3c([C@H](C)O)cc(nc3[C@H]2O)C(=O)O[C@@H]4C)n1)C(N)=O [Thiostrepton],significantly reduced,significantly reduced,reduced,reduced,,,,,,,,,,,,,
B1,,,,,increased,4.4 folds,0.8 folds,1.5 folds,1.7 folds,0.6 folds,2.2 folds,2.8 folds,about 2.3 folds,markedly increased,not altered,increased,increased
